One block for each substance: values may come before it.
How the values were obtained:
[1] = target: D3H44 light chain Q38R_Q124R_Q160K_T178R; test: LCCA, SPR tag readout, L1:L2 DNA 1:3 normalized to 1:1; competitor m19
[2] = target: D3H44 light chain Q38E_Q124E_Q160E_T180E; test: LCCA, SPR tag readout, L1:L2 DNA 1:3 normalized to 1:1; competitor m26
[3] = target: D3H44 light chain Q38R_Q124R_Q160K_T178R; test: LCCA, SPR tag readout, L1:L2 DNA 1:9 normalized to 1:1; competitor m19
[4] = target: D3H44 light chain Q38E_Q124E_Q160E_T180E; test: LCCA, SPR tag readout, L1:L2 DNA 1:9 normalized to 1:1; competitor m26
[5] = target: D3H44 Fab heavy chain L124E_L143E_K145M, C-terminal ABD2-His6 tag; test: LCCA co-expression, SPR tag read-out; DNA 1:3 norm. to 1:1; competing light chain m7
[6] = target: D3H44 Fab heavy chain L124E_L143E_K145T, C-terminal ABD2-His6 tag; test: as above
[7] = target: D3H44 Fab heavy chain L124R_Q179K, C-terminal ABD2-His6 tag; test: as above
[8] = target: D3H44 Fab heavy chain L124E_L143D_K145T, C-terminal ABD2-His6 tag; test: LCCA co-expression, SPR tag read-out; DNA 1:3 norm. to 1:1; competing light chain m8
[9] = target: D3H44 Fab heavy chain L124E_L143E_K145M, C-terminal ABD2-His6 tag; test: as above
[10] = target: D3H44 Fab heavy chain L124R_Q179K, C-terminal ABD2-His6 tag; test: as above
[11] = target: D3H44 Fab heavy chain L124E_L143D_K145M, C-terminal ABD2-His6 tag; test: LCCA (co-expression, SPR read-out of light chain tags), L1:L2 DNA 1:3 normalised to 1:1; competitor m9
[12] = target: D3H44 Fab heavy chain L124E_L143D_K145T, C-terminal ABD2-His6 tag; test: as above
[13] = target: D3H44 Fab heavy chain L124R_Q179K, C-terminal ABD2-His6 tag; test: as above
[14] = target: D3H44 Fab heavy chain L124E_L143D_K145M, C-terminal ABD2-His6 tag; test: LCCA (co-expression, SPR read-out of light chain tags), L1:L2 DNA 1:3 normalised to 1:1; competitor m10
[15] = target: D3H44 Fab heavy chain L124R_Q179K, C-terminal ABD2-His6 tag; test: as above
[16] = target: D3H44 Fab heavy chain L124E_L143D_K145M, C-terminal ABD2-His6 tag; test: LCCA (co-expression, SPR read-out of light chain tags), L1:L2 DNA 1:3 normalised to 1:1; competitor m11
[17] = target: D3H44 Fab heavy chain L124E_L143D_K145T, C-terminal ABD2-His6 tag; test: as above
[18] = target: D3H44 Fab heavy chain L124R_Q179K, C-terminal ABD2-His6 tag; test: as above
[19] = target: D3H44 Fab heavy chain L124E_L143E_K145M, C-terminal ABD2-His6 tag; test: LCCA set 9266 (co-expression; SPR read-out of light-chain tags; L1:L2 DNA 1:3, normalized to 1:1); competing light chain m9
[20] = target: D3H44 Fab heavy chain L124E_L143E_K145T, C-terminal ABD2-His6 tag; test: LCCA set 9316 (co-expression; SPR read-out of light-chain tags; L1:L2 DNA 1:3, normalized to 1:1); competing light chain m9
[21] = target: D3H44 Fab heavy chain L124R_Q179K, C-terminal ABD2-His6 tag; test: LCCA set 9388 (co-expression; SPR read-out of light-chain tags; L1:L2 DNA 1:3, normalized to 1:1); competing light chain m9
[22] = target: D3H44 Fab heavy chain L124E_L143E_K145M, C-terminal ABD2-His6 tag; test: LCCA set 9259 (co-expression; SPR read-out of light-chain tags; L1:L2 DNA 1:3, normalized to 1:1); competing light chain m10
[23] = target: D3H44 Fab heavy chain L124E_L143E_K145T, C-terminal ABD2-His6 tag; test: LCCA set 9271 (co-expression; SPR read-out of light-chain tags; L1:L2 DNA 1:3, normalized to 1:1); competing light chain m12
[24] = target: D3H44 Fab heavy chain L124E_L143E_K145T, C-terminal ABD2-His6 tag; test: LCCA set 9298 (co-expression; SPR read-out of light-chain tags; L1:L2 DNA 1:3, normalized to 1:1); competing light chain m10
[25] = target: D3H44 Fab heavy chain L124R_D146N_Q179K, C-terminal ABD2-His6 tag; test: LCCA set 9350 (co-expression; SPR read-out of light-chain tags; L1:L2 DNA 1:3, normalized to 1:1); competing light chain m12
[26] = target: D3H44 Fab heavy chain L124R_Q179K, C-terminal ABD2-His6 tag; test: LCCA set 9384 (co-expression; SPR read-out of light-chain tags; L1:L2 DNA 1:3, normalized to 1:1); competing light chain m10
[27] = target: D3H44 Fab heavy chain L124A_L143F_Q179K, ABD2-His6 tagged; test: LCCA, SPR of light chain tags; L1:L2 DNA 1:3 normalized to 1:1; competing light chain m13
[28] = target: D3H44 Fab heavy chain L124A_L143F_Q179K, ABD2-His6 tagged; test: LCCA, SPR of light chain tags; L1:L2 DNA 1:3 normalized to 1:1; competing light chain m14
[29] = target: D3H44 Fab heavy chain L124A_Q179K, ABD2-His6 tagged; test: as above
[30] = target: D3H44 Fab heavy chain L124W_L143E_K145T_Q179E, ABD2-His6 tagged; test: as above
[31] = target: D3H44 Fab heavy chain L124W_L143F_K145T_Q179E, ABD2-His6 tagged; test: as above
[32] = target: D3H44 Fab heavy chain L124A_L143F_Q179K, ABD2-His6 tagged; test: LCCA, SPR of light chain tags; L1:L2 DNA 1:9 normalized to 1:1; competing light chain m13
[33] = target: D3H44 Fab heavy chain L124W_L143E_K145T_Q179E, ABD2-His6 tagged; test: as above
[34] = target: D3H44 Fab heavy chain L143E_K145T_Q179D, ABD2-His6 tagged; test: LCCA, SPR of light chain tags; L1:L2 DNA 1:3 normalized to 1:1; competing light chain m19
[35] = target: D3H44 Fab heavy chain S186K, ABD2-His6 tagged; test: as above
[36] = target: D3H44 Fab heavy chain S186R, ABD2-His6 tagged; test: as above
[37] = target: D3H44 Fab heavy chain L143E_K145T_Q179D, ABD2-His6 tagged; test: LCCA, SPR of light chain tags; L1:L2 DNA 1:9 normalized to 1:1; competing light chain m19
[38] = target: D3H44 Fab heavy chain S186K, ABD2-His6 tagged; test: as above
[39] = target: D3H44 Fab heavy chain L124A_L143F_Q179K, ABD2-His6 tagged; test: LCCA, SPR of light chain tags; L1:L2 DNA 1:3 normalized to 1:1; competing light chain m12
[40] = target: D3H44 Fab heavy chain L124W_L143E_K145T_Q179E, ABD2-His6 tagged; test: as above
[41] = target: D3H44 Fab heavy chain L124W_L143E_K145T_Q179E, ABD2-His6 tagged; test: LCCA, SPR of light chain tags; L1:L2 DNA 1:9 normalized to 1:1; competing light chain m12
[42] = target: D3H44 Fab heavy chain L124W_L143F_K145T_Q179E, ABD2-His6 tagged; test: LCCA, SPR of light chain tags; L1:L2 DNA 1:3 normalized to 1:1; competing light chain m12
[43] = target: D3H44 Fab heavy chain L124W_L143F_K145T_Q179E, ABD2-His6 tagged; test: LCCA, SPR of light chain tags; L1:L2 DNA 1:3 normalized to 1:1; competing light chain m15
[44] = target: tissue factor (TF) antigen (UniProt P13726); test: SPR (ProteOn XPR36), Fab captured on anti-penta His, TF injected, 1:1 model
[45] = target: tissue factor (TF) antigen (UniProt P13726); test: SPR (ProteOn XPR36), Fab captured on anti-penta His, TF injected at 0.74-60 nM, 1:1 model; median

Substance: D3H44 light chain Q124K_T178R, HA or FLAG tagged
- H1L1:H1L2 normalized median ratio [34]: 85%
- H1L1:H1L2 normalized median scalar value ln(r1/f1) [34]: 1.74
- H2L2:H2L1 normalized median ratio [35]: 2%
- H2L2:H2L1 normalized median ratio [36]: 3%
- H1L1:H1L2 normalized median ratio [37]: 89%
- H1L1:H1L2 normalized median scalar value ln(r1/f1) [37]: 2.05
- H2L2:H2L1 normalized median ratio [38]: 5%

Substance: D3H44 light chain Q124K_V133A_S176T_T178R, HA or FLAG tagged
- H1L1:H1L2 normalized median ratio [39]: 5%
- H2L2:H2L1 normalized median ratio [40]: 89%
- H2L2:H2L1 normalized median ratio [41]: 92%

Substance: D3H44 light chain S131K_V133A_S176T_T178L, HA or FLAG tagged
- H2L2:H2L1 normalized median ratio [40]: 78%
- H2L2:H2L1 normalized median ratio [42]: 70%
- H2L2:H2L1 normalized median ratio [43]: 69%

Substance: wild-type D3H44 Fab heterodimer constructs (Fab constructs containing HA tag or FLAG tag)
- fold difference between the maximum and minimum KD values [44]: 2.6 fold
- Kd [45]: 0.15 nM

Second part, the substance after the results:

- H1L1:H1L2 normalized median ratio [1]: 97%
- H1L1:H1L2 normalized median ratio [2]: 3%
- H1L1:H1L2 normalized median ratio [3]: 95%
- H1L1:H1L2 normalized median scalar value ln(r1/f1) [3]: 2.96
- H1L1:H1L2 normalized median ratio [4]: 5%
Substance: D3H44 Fab heavy chain Q39E_L143E_K145T_H172R_Q179E

- H1L1:H1L2 normalized median ratio (% (ratio normalized to 100)) [5]: 8
- H1L1:H1L2 normalized median ratio (% (ratio normalized to 100)) [6]: 5
- H2L2:H2L1 normalized median ratio (% (ratio normalized to 100)) [7]: 92
- H1L1:H1L2 normalized median ratio (% (ratio normalized to 100)) [8]: 8
- H1L1:H1L2 normalized median ratio (% (ratio normalized to 100)) [9]: 5
- H2L2:H2L1 normalized median ratio (% (ratio normalized to 100)) [10]: 92
- H1L1:H1L2 normalized median ratio [11]: 8%
- H1L1:H1L2 normalized median ratio [12]: 8%
- H2L2:H2L1 normalized median ratio [13]: 92%
- H1L1:H1L2 normalized median ratio [14]: 9%
- H2L2:H2L1 normalized median ratio [15]: 92%
- H1L1:H1L2 normalized median ratio [16]: 10%
- H1L1:H1L2 normalized median ratio [17]: 11%
- H2L2:H2L1 normalized median ratio [18]: 93%
- H1L1:H1L2 normalized median ratio (H1L2 part) [19]: 16%
- H1L1:H1L2 normalized median ratio (H1L2 part) [20]: 12%
- H2L2:H2L1 normalized median ratio (H2L2 part) [21]: 92%
- H1L1:H1L2 normalized median ratio (H1L2 part) [22]: 16%
- H1L1:H1L2 normalized median ratio (H1L2 part) [23]: 5%
- H1L1:H1L2 normalized median ratio (H1L2 part) [24]: 12%
- H2L2:H2L1 normalized median ratio (H2L2 part) [25]: 82%
- H2L2:H2L1 normalized median ratio (H2L2 part) [26]: 92%
Substance: D3H44 light chain Q124E_V133G_S176D_T178E_T180E, N-terminal HA or FLAG tag

- H1L1:H1L2 normalized median ratio [27]: 95%
- H1L1:H1L2 normalized median scalar value ln(r1/f1) [27]: 2.88
- H1L1:H1L2 normalized median ratio [28]: 97%
- H1L1:H1L2 normalized median scalar value ln(r1/f1) [28]: 3.61
- H1L1:H1L2 normalized median ratio [29]: 97%
- H1L1:H1L2 normalized median scalar value ln(r1/f1) [29]: 3.59
- H2L2:H2L1 normalized median ratio [30]: 22%
- H2L2:H2L1 normalized median ratio [31]: 30%
- H1L1:H1L2 normalized median scalar value ln(r1/f1) [32]: 2.69
- H2L2:H2L1 normalized median ratio [33]: 8%
Substance: D3H44 light chain Q124E_V133W_S176T_T178E_T180E, HA or FLAG tagged

Reference: patent US11306156
